In publication PMC5719442:

How the values were obtained:
[1] = target: AnPrx6, Prx6 (1-Cys peroxiredoxin) from Anabaena sp. strain PCC 7120 (Anabaena sp. PCC 7120); test: SEC; analytical SEC at 0.1, 1 and 10 mg/ml protein, without or with 20 mM H2O2; BioRad Gel Filtration Standard
[2] = target: AnPrx6, Prx6 (1-Cys peroxiredoxin) from Anabaena sp. strain PCC 7120 (Anabaena sp. PCC 7120); test: SAXS; 1.6 mg/ml and 4.8 mg/ml protein; mass from Hen Egg White Lysozyme standard and from Porod volume

stoichiometry N [1]: 2 | stoichiometry N [2]: 2
Substance: AnPrx6, Prx6 (1-Cys peroxiredoxin) from Anabaena sp. strain PCC 7120 (enzyme)
